Here are results for 120 sequences from the supplement of paper PMC10126150.

± gives the standard deviation of the averaged measurements.
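Note: ATP exposure 15 min at 22 °C before imaging.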

In the data set the test system is ATP. The data set can be described thus: switch fluorescence ratio, 500 uM ATP over buffer (Cy3 cluster intensity, sum of 5 cycles each) (fold (ratio)); higher = stronger signal-on switching upon ATP binding; sequences stand for … in TCGTCGGCAGCGTCAGATGTGTATAAGAGACAGTTTTTTTTTTTTTTTTTTTTTTTTT…TC. As to conditions: aptamer strand: ATP DNA aptamer (quencher-CACCTGGGGGAGTATTGCGGAGGAAGG + anchor), 100 nM annealed; ATP concentration: 500 uM. The procedure, abridged: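 Cy3-labelled switching-strand clusters on a modified Illumina MiSeq flow-cell were annealed to 100 nM quencher-labelled ATP aptamer and imaged first in selection buffer, then after 15 min with 500 uM ATP at 22 °C. NaOH stripping and re-annealing separated each of five buffer/ATP cycles, and clusters outside 100-1000 RFU were excluded. The fluorescence ratio sums target-cycle Cy3 intensity over buffer-cycle Cy3 intensity per cluster and averages it per switch-domain sequence.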
Consider GTTTTGAGGT, for which the switch fluorescence ratio stood at 1.02 ± 0.028. As to GAGGGCTAAA, the switch fluorescence ratio is 1.06 ± 0.082.

As to AGCAGGGGGT, the switch fluorescence ratio was 1.05 ± 0.044. The result for TTTTAGAGAT reads 1.02 ± 0.038; that for AATTTGGCAC, 1.05 ± 0.09. The value for CTTATTGTTT was 0.995 ± 0.069; that for TTTACATTGG was 1.01 ± 0.044. For GTTCGGATGG, the switch fluorescence ratio is 1.015 ± 0.0032. For the sequence TTCTCGTTCT, the switch fluorescence ratio is 0.996 ± 0.045. Turning to TTCACGGTCG, the switch fluorescence ratio is 1.03 ± 0.024.

TAGAATTAGG: the switch fluorescence ratio was determined as 0.987 ± 0.037.

Regarding GGCTTCCCTG, the switch fluorescence ratio was found to be 1.19 ± 0.025.

Turning to CAGTAGTCGC, the switch fluorescence ratio is 1.01 ± 0.03. The value for AGTTGGGAGC was 0.991 ± 0.02; that for GCGCTCATAG was 1.15 ± 0.018; that for TTGCTCCTGT was 0.9965 ± 0.0019. The value for CCGCCGAGGT was 1.68 ± 0.034.

Take GAGGGTCGGG: the switch fluorescence ratio amounted to 0.988 ± 0.033. The result for ACGTGAGTGT reads 0.977 ± 0.0076.

With ATGGGAGGGT, the switch fluorescence ratio was 0.997 ± 0.061. The value for GACGTAACGG was 1.082 ± 0.0014. The value for TTTGCAGGGT was 1.03 ± 0.025. The result for GCGGGGCAGC reads 1.001 ± 0.0068; that for GGCTGGCACA, 1.002 ± 0.0085.

As to AGGTGTAGGC, the switch fluorescence ratio was found to be 0.979 ± 0.038.

As to ATTCGGTTGT, the switch fluorescence ratio was found to be 1.001 ± 0.0059. For TTTTAATGCG, the switch fluorescence ratio was 1.04 ± 0.012. The value for CAGAAGGTTT was 1 ± 0.022. The result for CAGGAGGCGG reads 1.02 ± 0.037; that for TAAAAATCTT, 1.01 ± 0.041; that for AATTCGGGGG, 1.04 ± 0.054. The result for GGTGCCAAGT reads 1.004 ± 0.0052; that for AATAGGACGG, 1.03 ± 0.022; that for TCATTCGGTT, 1.02 ± 0.016. AATGTTACGC: the switch fluorescence ratio is 1.02 ± 0.058. The result for TAAGTTTTAG reads 1.07 ± 0.081; that for GGCGTTTGCT, 0.9827 ± 0.0086. The value for CGGGCCGTTT was 1.06 ± 0.077.

Turning to GCGGCCTGGG, the switch fluorescence ratio was found to be 1.02 ± 0.049. The result for ATGAGGAATG reads 1.008 ± 0.0043; that for GTAGGGGGTG, 1.02 ± 0.065. For TGAAGGATGA, the switch fluorescence ratio amounted to 0.9978 ± 0.0058. The result for TTCATATTAT reads 0.9472 ± 0.0062. TGTCAGGGTT: the switch fluorescence ratio is 1 ± 0.014. Take TTTTTACGGA: the switch fluorescence ratio amounted to 1.02 ± 0.043. The result for ATTTTCTTTT reads 1.06 ± 0.079; that for TTTTAAAGTG, 0.993 ± 0.034.

AAGTGGGTGT: the switch fluorescence ratio worked out at 0.99 ± 0.059.

GGGTCCTAAG: the switch fluorescence ratio was 0.975 ± 0.038.

For the sequence GGTTGAAAAA, the switch fluorescence ratio was 0.985 ± 0.053. The result for TGAGAAAGGG reads 0.982 ± 0.0019; that for TTGTAAGTT, 0.99664 ± 0.00012. The result for AAGTGGGGTA reads 1.03 ± 0.022; that for GATCCATGCT, 0.9536 ± 0.0019. The value for TCGTTGTGCT was 0.964 ± 0.027; that for AGATGGAGGC was 1.0705 ± 0.00017. Consider TGGGAAGTGG, for which the switch fluorescence ratio stood at 1.04 ± 0.071. The result for CTGAAGCTCA reads 1.91 ± 0.044. The result for AATTGTGATG reads 1.01 ± 0.02; that for GAATGGGGAA, 1.02 ± 0.021; that for AAGTGACCTT, 1.135 ± 0.0039.

Consider CTGGGGGTAG, for which the switch fluorescence ratio came to 1.01 ± 0.016. As for AGATTAGAT, the switch fluorescence ratio was 0.993 ± 0.015.

In the case of AAACTTTGTT, the switch fluorescence ratio was determined as 1.02 ± 0.039.

Turning to AGCGGCCTAA, the switch fluorescence ratio came to 0.987 ± 0.014. The value for TGGGGTAAAG was 1.01 ± 0.033; that for CGGGTTTTTT was 0.988 ± 0.032. Regarding GGGGACGGGT, the switch fluorescence ratio came out at 1.01 ± 0.14.

Regarding GCATTGTTTG, the switch fluorescence ratio was found to be 0.995 ± 0.034. The result for TGTGACGAAC reads 1.23 ± 0.045; that for GGTGGGTATT, 0.966 ± 0.021; that for CCCAGGAGTT, 1.94 ± 0.16. The value for CTGGGGAGGA was 0.997 ± 0.028; that for AGGGAGGGGT was 0.983 ± 0.021. The result for TTGATAATCT reads 1 ± 0.026; that for GCTTCAAGGC, 1.03 ± 0.045; that for TTGATCTCGG, 1.014 ± 0.0061. In the case of CAAGTAAGTT, the switch fluorescence ratio turned out to be 0.9884 ± 0.0063. In the case of GAGTAATGCT, the switch fluorescence ratio came out at 1.27 ± 0.017. The value for CTGGCTGCGG was 1.01 ± 0.039; that for CGTTGGGCAG was 0.953 ± 0.099; that for ATAGGATTTG was 1.032 ± 0.0096.

Take GGGTCTAAG: the switch fluorescence ratio worked out at 0.987 ± 0.041. Regarding GAATGGGGCT, the switch fluorescence ratio came out at 0.987 ± 0.037. Turning to GAGGGGCCAG, the switch fluorescence ratio was 0.988 ± 0.027. The result for ATGAGGGCTT reads 0.981 ± 0.055; that for TCGTGCGGGT, 1.001 ± 0.0081. As to ATGTCACTGT, the switch fluorescence ratio came to 1.01 ± 0.043. On to ATAGAGGCAC, for which the switch fluorescence ratio was found to be 1.09 ± 0.099. The result for TGCGGGACT reads 2.28 ± 1.8; that for TAGGGCGCCA, 0.995 ± 0.057; that for TAAGTTATAT, 0.985 ± 0.015.

As to ACGGTGACGG, the switch fluorescence ratio turned out to be 1.02 ± 0.04.

As for GCCGAAGGGG, the switch fluorescence ratio amounted to 1.004 ± 0.0035. The value for TGGCAATGGG was 1.05 ± 0.017; that for TGAGGGGGCT was 0.9862 ± 0.0034. The value for TCATTAGGAA was 1 ± 0.035. In the case of TTACAGTTTT, the switch fluorescence ratio amounted to 0.9442 ± 0.0036. The result for TAATTAGGGG reads 1.06 ± 0.083; that for GAGGGCAATC, 2.76 ± 0.64; that for TTGGGTTCCC, 1.01 ± 0.05. The value for TCTCCAGGGG was 2.3 ± 2.1; that for GACGGGTGAG was 0.9917 ± 0.0087; that for TTTGCGTTTC was 1.07 ± 0.039. The value for CGTTCTCTGT was 0.987 ± 0.029; that for GTGGGGGTTC was 0.985 ± 0.041; that for AGGATGGTAA was 1 ± 0.02. In the case of ACGGGGTGTC, the switch fluorescence ratio came out at 1.08 ± 0.089. With GGAAGGCGGG, the switch fluorescence ratio was 1.11 ± 0.16. As to GCTCAATCTA, the switch fluorescence ratio came out at 1.01 ± 0.006. The result for GAATAGGGGA reads 1.02 ± 0.022. The result for CAACCGGTTG reads 0.984 ± 0.017. The result for GGGTTTCAGA reads 1.01 ± 0.028; that for GATTTTTTAG, 0.998 ± 0.018. Turning to GTAATTTAGG, the switch fluorescence ratio is 0.996 ± 0.042.

As to GCAGGGTGTC, the switch fluorescence ratio worked out at 1.08 ± 0.048. Take TCTTTTTATA: the switch fluorescence ratio turned out to be 1.04 ± 0.017. The value for CACCGGGATG was 1.31 ± 0.099; that for GGTGAGGTTG was 0.971 ± 0.02. The result for ACTGAGTCAT reads 1.01 ± 0.034.
